Laboratory results taken from FireProtDB (doi:10.1110/ps.051838206).
“And” between values parts separate entries of the source, which are not always exact repeats. Equal values may be shown once.

Settings: Pseudomonas aeruginosa (strain ATCC 15692 / DSM 22644 / CIP 104116 / JCM 14847 / LMG 12228 / 1C / PRS 101 / PAO1); pH 7; 25 °C; GdnHCl; Fluorescence; Tris-HCl 100 mM; reversible: Yes; whole UniProt chain shown

B1: Azurin wild type, P00282 (protein)
chain: MLRKLAAVSLLSLLSAPLLAAECSVDIQGNDQMQFNTNAITVDKSCKQFTVNLSHPGNLPKNVMGHNWVLSTAADMQGVVTDGMASGLDKDYLKPDDSRVIAHTKLIGSGEKDSVTFDVSKLKEGEQYMFFCTFPGHSALMKGTLTLK
unfolding free energy: 5.98 kcal/mol and 12.9 kcal/mol
